According to US20110151450:
Residue numbers refer to the chain shown, from its start.

What was measured:
Assay in all cases: cleavage_in_vitro
[1] = target: T1, DpnII-HF R199A (Diplococcus pneumoniae) (UniProt P09357); details: NEB4, relative activity 100%
T1 sequence: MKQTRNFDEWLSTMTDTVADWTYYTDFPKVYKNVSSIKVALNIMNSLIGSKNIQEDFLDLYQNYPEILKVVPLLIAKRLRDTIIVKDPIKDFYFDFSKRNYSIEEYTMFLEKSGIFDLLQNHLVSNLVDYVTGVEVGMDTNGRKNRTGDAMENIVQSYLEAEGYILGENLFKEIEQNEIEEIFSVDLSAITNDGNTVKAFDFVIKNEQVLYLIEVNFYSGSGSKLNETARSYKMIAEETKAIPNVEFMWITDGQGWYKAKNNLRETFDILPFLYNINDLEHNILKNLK

[2] = target: T2, DpnII-WT (Diplococcus pneumoniae) (UniProt P09357); details: NEB4, relative activity 25%
T2 sequence: T1 sequence with A199R

NruI-WT (Nocardia rubra) = system: T3, NruI-WT (Nocardia rubra); details: NEB4, relative activity 12.5%
T3 sequence: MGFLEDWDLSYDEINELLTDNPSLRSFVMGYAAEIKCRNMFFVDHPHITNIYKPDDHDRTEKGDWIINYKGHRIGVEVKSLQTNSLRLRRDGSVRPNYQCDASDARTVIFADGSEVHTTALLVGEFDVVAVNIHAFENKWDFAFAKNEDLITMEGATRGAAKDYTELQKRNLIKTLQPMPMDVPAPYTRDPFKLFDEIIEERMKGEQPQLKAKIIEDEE

[3] = system: BanII-HF R126A (Bacillus aneurinolyticus); details: NEB4, relative activity 50%
[4] = system: T4, NruI-HF P22A/R90A (Nocardia rubra); details: NEB4, relative activity 100%
T4 sequence: T3 sequence with P22A, R90A

[5] = target: T5, BanII-WT (Bacillus aneurinolyticus) (UniProt P19887); details: NEB4, relative activity 100%
T5 sequence: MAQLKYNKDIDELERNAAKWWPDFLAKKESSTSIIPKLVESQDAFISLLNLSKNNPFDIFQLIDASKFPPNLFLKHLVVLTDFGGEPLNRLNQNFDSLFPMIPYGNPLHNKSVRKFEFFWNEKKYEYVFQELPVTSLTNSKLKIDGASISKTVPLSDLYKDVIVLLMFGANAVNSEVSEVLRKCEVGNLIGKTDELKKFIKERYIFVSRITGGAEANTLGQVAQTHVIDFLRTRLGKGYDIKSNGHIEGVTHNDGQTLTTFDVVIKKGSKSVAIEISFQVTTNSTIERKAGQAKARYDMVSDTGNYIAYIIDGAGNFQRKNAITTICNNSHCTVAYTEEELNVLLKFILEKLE

[6] = system: T6, BclI-WT (Bacillus caldolyticus); details: NEB4, relative activity 100%
T6 sequence: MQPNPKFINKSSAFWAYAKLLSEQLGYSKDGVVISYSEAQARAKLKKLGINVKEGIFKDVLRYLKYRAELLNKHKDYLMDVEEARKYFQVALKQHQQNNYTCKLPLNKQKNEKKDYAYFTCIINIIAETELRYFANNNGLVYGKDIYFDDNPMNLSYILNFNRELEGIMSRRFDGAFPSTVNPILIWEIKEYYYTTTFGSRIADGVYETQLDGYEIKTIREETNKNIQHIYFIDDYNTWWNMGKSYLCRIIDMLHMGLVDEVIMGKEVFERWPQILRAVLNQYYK

[7] = system: T7, BclI-HF Y192F (Bacillus caldolyticus); details: NEB4, relative activity 100%
T7 sequence: T6 sequence with Y192F

[8] = target: T8, BglI-WT (Bacillus globigii) (UniProt O68557); details: NEB4, relative activity 50%
T8 sequence: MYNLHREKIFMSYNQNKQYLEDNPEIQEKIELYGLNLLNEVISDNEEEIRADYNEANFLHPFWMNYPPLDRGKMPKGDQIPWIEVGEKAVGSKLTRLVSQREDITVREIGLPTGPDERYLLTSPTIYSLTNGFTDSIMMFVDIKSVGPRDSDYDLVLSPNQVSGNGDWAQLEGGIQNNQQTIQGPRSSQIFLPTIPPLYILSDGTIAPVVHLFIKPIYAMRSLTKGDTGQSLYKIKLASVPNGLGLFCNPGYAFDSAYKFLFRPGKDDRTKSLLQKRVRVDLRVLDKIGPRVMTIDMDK

[9] = target: T9, BanI-HF Q292A (Bacillus aneurinolyticus) (UniProt P19887); details: NEB4, relative activity 100%
T9 sequence: T5 sequence with Q292A

[10] = system: T10, MluI-WT (Micrococcus luteus); details: NEB4, relative activity 25%
T10 sequence: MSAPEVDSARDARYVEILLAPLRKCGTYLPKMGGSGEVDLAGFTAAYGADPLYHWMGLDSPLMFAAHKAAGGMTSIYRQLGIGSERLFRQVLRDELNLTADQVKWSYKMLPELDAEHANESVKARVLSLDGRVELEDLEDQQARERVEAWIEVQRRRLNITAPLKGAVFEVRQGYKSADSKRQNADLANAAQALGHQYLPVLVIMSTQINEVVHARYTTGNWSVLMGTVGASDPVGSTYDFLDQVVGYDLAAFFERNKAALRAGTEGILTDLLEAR

[11] = target: T11, BanI-WT (Bacillus aneurinolyticus) (UniProt P19887); details: NEB4, relative activity 100%
T11 sequence: T5 sequence

[12] = target: T12, BglI-HF K225A (Bacillus globigii) (UniProt O68557); details: NEB4, relative activity 100%
T12 sequence: T8 sequence with K225A

[13] = system: T13, MluI-HF E112A/R132A (Micrococcus luteus); details: NEB4, relative activity 100%
T13 sequence: T10 sequence with E112A, R132A

[14] = system: T14, BstEII-HF R105A (Bacillus stearothermophilus); details: NEB4, relative activity 100%
T14 sequence: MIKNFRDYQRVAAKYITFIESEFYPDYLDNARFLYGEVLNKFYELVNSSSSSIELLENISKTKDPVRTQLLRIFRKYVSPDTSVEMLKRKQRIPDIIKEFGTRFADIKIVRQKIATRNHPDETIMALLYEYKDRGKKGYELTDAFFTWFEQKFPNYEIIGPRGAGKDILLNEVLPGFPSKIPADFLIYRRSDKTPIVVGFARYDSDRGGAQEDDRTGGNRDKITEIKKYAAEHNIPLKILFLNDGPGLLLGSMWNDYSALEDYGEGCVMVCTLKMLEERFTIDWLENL

[15] = system: T15, BstEII-WT (Bacillus stearothermophilus); details: NEB4, relative activity 100%
T15 sequence: T14 sequence with A105R

[16] = system: T16, NspI-HF S97A (Nostoc species); details: NEB4, BSA, relative activity 100%
T16 sequence: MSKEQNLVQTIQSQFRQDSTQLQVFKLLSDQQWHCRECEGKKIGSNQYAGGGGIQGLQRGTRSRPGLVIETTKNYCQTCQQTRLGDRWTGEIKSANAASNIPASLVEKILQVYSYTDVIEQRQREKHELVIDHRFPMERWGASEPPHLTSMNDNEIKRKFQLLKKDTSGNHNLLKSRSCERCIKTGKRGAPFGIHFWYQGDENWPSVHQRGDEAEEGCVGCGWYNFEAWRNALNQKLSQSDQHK

NspI-WT (Nostoc species) = system: T17, NspI-WT (Nostoc species); details: NEB4, BSA, relative activity 50%
T17 sequence: T16 sequence with A97S

dam- lambda DNA
activity (fidelity index) [1]: 8000
activity (fidelity index) [2]: 1
activity (fidelity index) (NruI-WT (Nocardia rubra)): 32
activity (fidelity index) [3]: > 2000
activity (fidelity index) [4]: > 16000
activity (fidelity index) [5]: 16
activity (fidelity index) [6]: 32
activity (fidelity index) [7]: > 2000

lambda DNA
activity (fidelity index) [8]: 32
activity (fidelity index) [9]: > 2000
activity (fidelity index) [10]: 32
activity (fidelity index) [11]: 16
activity (fidelity index) [12]: > 8000
activity (fidelity index) [13]: > 32000
activity (fidelity index) [14]: > 2000
activity (fidelity index) [15]: 4

pUC19 plasmid
activity (fidelity index) [16]: 500
activity (fidelity index) (NspI-WT (Nostoc species)): 32
